According to patent US20240052059A1 (PUBLIC UNIVERSITY CORPORATION NARA MEDICAL UNIVERSITY, published 2024):

Molecular target: FIX remaining in commercially-available FIX-deficient human plasma (trace amount) (human, UniProt P00740 47-461)
Assay: cell-based or functional assay

FIX remaining in commercially-available FIX-deficient human plasma (trace amount), sequence (P00740 47-461 limits assumed): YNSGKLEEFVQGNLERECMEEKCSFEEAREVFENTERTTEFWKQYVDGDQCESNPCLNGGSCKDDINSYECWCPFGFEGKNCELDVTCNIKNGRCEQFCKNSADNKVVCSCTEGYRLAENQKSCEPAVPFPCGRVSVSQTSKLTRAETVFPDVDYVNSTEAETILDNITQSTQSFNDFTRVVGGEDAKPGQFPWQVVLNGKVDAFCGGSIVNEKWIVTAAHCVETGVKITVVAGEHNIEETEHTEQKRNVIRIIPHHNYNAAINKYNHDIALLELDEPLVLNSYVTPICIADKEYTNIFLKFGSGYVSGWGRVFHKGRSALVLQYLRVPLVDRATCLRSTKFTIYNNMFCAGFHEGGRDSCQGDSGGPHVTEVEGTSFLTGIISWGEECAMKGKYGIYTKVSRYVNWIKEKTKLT

B1: ACE910 (Emicizumab), anti-FIXa/FX bispecific antibody (Q499-z121/J327-z119/L404-k) (bispecific antibody, human IgG4 S228P, kappa)
heavy 1: QVQLVESGGGLVQPGGSLRLSCAASGFTFSYYDIQWVRQAPGKGLEWVSSISPSGQSTYYRREVKGRFTISRDNSKNTLYLQMNSLRAEDTAVYYCARRTGREYGGGWYFDYWGQGTLVTVSSASTKGPSVFPLAPCSRSTSESTAALGCLVKDYFPEPVTVSWNSGALTSGVHTFPAVLQSSGLYSLSSVVTVPSSSLGTQTYTCNVDHKPSNTKVDKRVESKYGPPCPPCPAPEFLGGPSVFLFPPKPKDTLMISRTPEVTCVVVDVSQEDPEVQFNWYVDGVEVHNAKTKPREEQYNSTYRVVSVLTVLHQDWLNGKEYKCKVSNKGLPSSIEKTISKAKGQPREPQVYTLPPSQKEMTKNQVSLTCLVKGFYPSDIAVEWESNGQPENNYKTTPPVLDSDGSFFLYSKLTVDKSRWQEGNVFSCSVMHEALHNRYTQKSLSLSP
heavy 2: QVQLVQSGSELKKPGASVKVSCKASGYTFTDNNMDWVRQAPGQGLEWMGDINTRSGGSIYNEEFQDRVIMTVDKSTDTAYMELSSLRSEDTATYHCARRKSYGYYLDEWGEGTLVTVSSASTKGPSVFPLAPCSRSTSESTAALGCLVKDYFPEPVTVSWNSGALTSGVHTFPAVLQSSGLYSLSSVVTVPSSSLGTQTYTCNVDHKPSNTKVDKRVESKYGPPCPPCPAPEFLGGPSVFLFPPKPKDTLMISRTPEVTCVVVDVSQEDPEVQFNWYVDGVEVHNAKTKPREEQYNSTYRVVSVLTVLHQDWLNGKEYKCKVSNKGLPSSIEKTISKAKGQPREPQVYTLPPSQEEMTKNQVSLTCLVKGFYPSDIAVEWESNGQPENNYKTTPPVLDSDGSFFLYSKLTVDKSRWQEGNVFSCSVMHEALHNHYTQESLSLSP
light: DIQMTQSPSSLSASVGDRVTITCKASRNIERQLAWYQQKPGQAPELLIYQASRKESGVPDRFSGSRYGTDFTLTISSLQPEDIATYYCQQYSDPPLTFGGGTKVEIKRTVAAPSVFIFPPSDEQLKSGTASVVCLLNNFYPREAKVQWKVDNALQSGNSQESVTEQDSKDSTYSLSSTLTLSKADYEKHKVYACEVTHQGLSSPVTKSFNRGEC
APTT shortening ratio with 100 ug/mL ACE910 in FIX-deficient human plasma without FIX formulation, after further addition of anti-FIX-Gla antibody (150 ug/mL): -3%
